In patent US20210403586A1, “MUTANT OF RANKL AND PHARMACEUTICAL COMPOSITION COMPRISING SAME FOR PREVENTING OR TREATING OSTEOPOROSIS” (INDUSTRY-ACADEMIC COOPERATION FOUNDATION CHOSUN UNIVERSITY, priority 2018, published 2021):
“Also recorded” adds a separate entry of the source.

Key:
[1] = test system: bone marrow-derived monocytes (BMMs); assay: TRAP analysis of osteoclastogenesis induced by RANKL variants in BMMs; type: cell-based, mouse; conditions: RANKL-treated primary BMM; listed as mtRANKL
Method: The RANKL-RANK binding sites are K180, D189, R190, H223, H224, which are conserved between humans and mice. We selected 4 mutant RANKLs to be purified. Their size corresponded to the wild type RANKL (39 kDa) (FIG. 2B). Tartrate-resistant acid […] (TRAP) activity was absent for all RANKLs even at 150 ng/mL (FIG. 2C, D).
(§1) 4-week old male BALB/c mice were purchased from Orient Bio (Gwangju, Korea) and kept in an animal facility approved by the Chosun University Animal Management Committee (IACUC2017-A0002). After obtaining bone marrow cells from mice, bone marrow mononuclear cells were seeded into 96-well plates (1 Y 10^4 cells/well), and in the absence or presence of various concentrations of compounds, incubated with M-CSF (100 ng/mL) overnight before stimulation with RANKL (50 ng/well). The medium was replaced every other days. 6 days later, the cells were fixed with 4% paraformaldehyde, permeated in 0.1% Triton X-100, and washed with PBS. Then, TRAP activity (Sigma-Aldrich, St. Louis, Mo., USA) staining was performed. TRAP-positive multinuclear cells containing 5 or more nuclei were counted as osteoclasts.
To evaluate the effect of mtRANKL on osteoclastogenesis, TRAP analysis was performed on RANKL-treated primary bone marrow-derived macrophages (BMM) by the method described in Reference Example 2, and the results are shown in FIGS. 4B and 4C.

[2] = test system: bone marrow-derived monocytes (BMMs); assay: Inhibition of wild type RANKL-induced TRAP activity by mutant RANKL in BMMs; type: cell-based, mouse; conditions: BMMs treated with mutant and wild type RANKL; even at a 3:1 wild type:mutant ratio
Method: To investigate the optimized inhibitory effect against wild type RANKL, bone marrow-derived monocytes (BMMs) were treated with purified mutant and wild type RANKL (FIG. 2E, F). […] Therefore, we used mRANKL-MT3 for subsequent experiments.
as §1

BMMs = assay: Real-time PCR of osteoclastogenesis mRNA in RANKL-induced BMMs; type: cell-based, mouse; conditions: mRANKL-MT3-induced BMMs compared with mRANKL-WT induced BMMs
Method: Meanwhile, for Real-time PCR, BMM cells were incubated with 30 ng/mL M-CSF and 75 ng/mL sRANKL (R&D Systems) or isolated RANKL in 6-well plates. Total RNA was extracted using TRIzol reagent (Invitrogen, Thermo Fisher Scientific, Inc.). The cDNA was synthesized from 2 μg total RNA using ReverTra Ace qPCR RT Master Mix (TOYOBO, Osaka, Japan). Real-time PCR was conducted on a CFX Connect RealTime PCR Detection System (Bio-Rad, Hercules, Calif., USA) in a reaction mixture (total volume, 20 μL) containing IQ SYBR Green Supermix (Bio-Rad), 10 pmol forward primer, 10 pmol reverse primer, and 1 μg cDNA.

RANKL = assay: Western blot of serum for antibodies after mtRANKL immunization; type: in vivo, mouse; conditions: mice immunized 3 times with 0.2 mg mtRANKL with aluminum hydroxide adjuvant
Method: Proteins were separated by SDS-PAGE and electropermeated into a nitrocellulose membrane (Bio-Rad). After blocking the membrane with 5% (weight/volume) skim milk in TBST [10 mM Tris (pH 7.5), 150 mM NaCl, 0.1% (vol/vol) Tween 20], each mouse serum for primary antibody in the blocking solution was examined. The membrane was washed three times with Tris buffered saline. […] peroxidase (HRP)-conjugated secondary antibody was diluted 1:5000 with TBST in 1% (wt/vol) skim milk powder. ECL_system (Amersham Pharmacia Biotech) was used as the membrane.
17-week-old […] BALB/c mice were equally divided into 3 groups. The group was divided into a negative control group in which PBS was intraperitoneally injected, a group in which only wtRANKL was injected, and a group in which wtRANKL was injected after immunization with mtRANKL for 52 days. mtRANKL was injected after mixing with an aluminum hydroxide adjuvant. The immunization process started with 1st immunization of mtRANKL at 52 days, 2nd immunization at 39 days, 3rd immunization at 14 days each before injection of wtRANKL, and a total of 3 immunizations was performed. The amount of mtRANKL was 0.2 mg per mouse.
To determine whether antibodies were produced due to mtRANKL immunization, Western blot of Reference Example 4 was performed on the collected serum, and the results are shown in FIG. 6A.

isolated spleen cells = assay: Th1/Th2 cytokine secretion of isolated spleen cells; type: cell-based, mouse; conditions: culture supernatant of Sham and IM splenocytes stimulated with sRANKL or mRANKL-MT3
From the text: To determine whether mRANKL-MT3 immunization influences Th1 and Th2 cytokine production, we evaluated the effects of mRANKL-MT3 on IL-4 and IL-10 secretion, which are markers for Th2 responses, and IFN-γ, a marker for Th1 responses, in the culture supernatant of isolated spleen cells stimulated with sRANKL or mRANKL-MT3 (FIG. 8C).

[3] = test system: ovariectomized (OVX) mice; assay: mtRANKL immunization in ovariectomized (OVX) mice, micro-CT; type: in vivo, mouse; conditions: mice ovariectomized after immunization with mtRANKL vs OVX mice
Method: […] As for the X-ray source, the field of view was set to 45 mm, 90 kV and […] (voxel size, 90 μm; scanning time, 14 minutes). CT imaging was performed using a Quantum GX 3D Viewer software. After scanning, image segmentation was performed in Analyze (AnalyzeDirect, Overland Park, Kans., USA). Briefly, the legs were segmented using semi-automatic and manual tools (e.g., object extractor, area expansion, and object separator) using volume editing tools. Then, a 3D rendering of the leg was created, and bone mineral density (BMD), bone volume (BV), bone volume percentage (%), and trabecular thickness were calculated using the ROI tools.
17-week-old […] BALB/c mice were equally divided into a group that was given OVX after immunization with mtRANKL, a group that was given only OVX, and a non-treated negative control group.
The mtRANKL-immunized group was immunized with mtRANKL a total of three times: started with 1st immunization at 52 days, 2nd immunization at 39 days, 3rd immunization at 14 days each before OVX. mtRANKL used in the immunization was injected after mixing with an aluminum hydroxide adjuvant. The amount of mtRANKL was 0.2 mg per mouse.
52 days after 1st immunization, OVX was performed. On day 70 after OVX, serum were collected and tibias were extracted, and then the adhesive soft tissues of tibias were removed. […]

B1: mRANKL-MT3: mouse RANKL mutant: K180R, D189I, R190K, H223F, H224Y; nucleic acid SEQ ID NO: 3 (protein, UniProt O35235 158-316, looked up, variant K180R D189I R190K H223F H224Y)
chain: KPEAQPFAHLTINAASIPSGSHRVTLSSWYHIKGWAKISNMTLSNGKLRVNQDGFYYLYANICFRFYETSGSVPTDYLQLMVYVVKTSIKIPSSHNLMKGGSTKNWSGNSEFHFYSINVGGFFKLRAGEEISIQVSNPSLLDPDQDATYFGAFKVQDID
In the case of B1, the “number of TRAP-positive multinuclear osteoclasts / osteoclast differentiation” value [1] is reported as “did not induce osteoclast differentiation; also recorded: led to a reduction of TRAP-positive cells”, the “inhibitory effect against wild type RANKL (TRAP activity)” value [2] is reported as “the most effective at inhibiting TRAP activity” and the “TRAP, NFATc1, and OSCAR mRNA expression” value (BMMs) is reported as “down-regulated”. The “antibodies in serum (Western blot)” value (RANKL) was “antibodies were detected”, the IFN-γ levels (isolated spleen cells) was “no significant differences” and the “IL-4 and IL-10 secretion” value (isolated spleen cells) was “significantly increased”. The BMD of tibias [3] was “significantly higher” and the “trabecular bones of proximal tibias (micro-CT)” value ([3]; day 70 after OVX) was “thicker fibers and higher density than those of OVX mice”.
